Experimental data reported in publication PMC3211009, “A Novel Cold-Adapted Lipase from Sorangium cellulosum Strain So0157-2: Gene Cloning, Expression, and Enzymatic Characterization” (International Journal of Molecular Sciences, 2011).

Assays:
Experiment in all cases: purified protein
Assay type in all cases: biochemical, Sorangium cellulosum
Details in all cases: 50 mM Tris-HCl pH 8.0, 30 °C
purified protein [1] = substrate: CC(=O)Oc1ccc([N+](=O)[O-])cc1
purified protein [2] = substrate: CCCC(=O)Oc1ccc([N+](=O)[O-])cc1
purified protein [3] = substrate: CCCCCCCC(=O)Oc1ccc([N+](=O)[O-])cc1
purified protein [4] = substrate: CCCCCCCCCC(=O)Oc1ccc([N+](=O)[O-])cc1
purified protein [5] = substrate: CCCCCCCCCCCC(=O)Oc1ccc([N+](=O)[O-])cc1

B1: r-LipA (Sorangium cellulosum) (protein)
chain: MPADTFTFQADDGRELFVYRWLPDDGARGIFHIAHGMSEHAGRYARLAHALSAAGWAVYANDHRGHGRTARERGELGFFASQGGFQRVVRDLAALIAREQEAHPGLPVVLFGHSMGSSLVQEYLIERGGSIQGAVLSGSSGKPSPLVDAGRLVARAERRRLGERGKSQLLQSMSFDSFNKLFAPARTPFDWLSRDRAEVDGYIADPCCGFPATVSLWIDLLDAMVDIARPERQARIPKDLPVYVFSGSRDPVGGPLRSVTQMIEAYRAAGLRRVTPRIYPGGRHEMLNEINREEVVRDLLAWLDAEVKTEAAPARPARPSAGAAAG
notes: pET-22b(+) NdeI/HindIII, His-tag (C-terminal by vector and stop-less reverse primer), E. coli BL21(DE3), Ni-NTA; tryptic peptides GELGFFASQGGFQR, SVTQMIEAYR; GHSMG at 112-116, Ser114/Asp250/His284
Km (purified protein [1]): 174 ± 6 µM
kcat (purified protein [1]): 29.2 ± 0.977 s⁻¹
kcat/Km (purified protein [1]): 168000 ± 2100 M⁻¹ s⁻¹
Km (purified protein [2]): 366 ± 211 µM
kcat (purified protein [2]): 13.6 ± 0.735 s⁻¹
kcat/Km (purified protein [2]): 37170 ± 128 M⁻¹ s⁻¹
Km (purified protein [3]): 704 ± 26 µM
kcat (purified protein [3]): 3.29 ± 0.114 s⁻¹
kcat/Km (purified protein [3]): 4677 ± 13 M⁻¹ s⁻¹
Km (purified protein [4]): 1664 ± 47 µM
kcat (purified protein [4]): 1.56 ± 0.036 s⁻¹
kcat/Km (purified protein [4]): 940 ± 5 M⁻¹ s⁻¹
Km (purified protein [5]): 1946 ± 59 µM
kcat (purified protein [5]): 1.21 ± 0.032 s⁻¹
kcat/Km (purified protein [5]): 619 ± 2 M⁻¹ s⁻¹
